Columns and labels:
HLA-A*24 [1] = biological target: T1, HLA-A*24; assay: UV peptide-exchange ELISA (anti-b2m); yield grade ++ = >20%
T1 construct: Monomers captured on streptavidin plates; also called peptide-receptive MHC molecules; MHC complexes
Text: (§1) Candidate peptides for T cell based therapies according to the present invention were further tested for their MHC binding capacity (affinity). The individual peptide-MHC complexes were produced by UV-ligand exchange, where a UV-sensitive peptide is cleaved upon UV-irradiation, and exchanged with the peptide of interest as analyzed. Only peptide candidates that can effectively bind and stabilize the peptide-receptive MHC molecules prevent dissociation of the MHC complexes. To determine the yield of the exchange reaction, an ELISA was performed based on the detection of the light chain (p2m) of stabilized MHC complexes. The assay was performed as generally described in Rodenko et al. (Rodenko et al., 2006)
(§2) 96 well MAXISorp plates (NUNC) were coated over night with 2 ug/ml streptavidin in PBS at room temperature, washed 4× and blocked for 1 h at 37° C. in 2% BSA containing blocking buffer. Refolded HLA-A*02:01/MLA-001 monomers served as standards, covering the range of 15-500 ng/ml. Peptide-MHC monomers of the UV-exchange reaction were diluted 100-fold in blocking buffer. Samples were incubated for 1 h at 37° C., washed four times, incubated with 2 ug/ml HRP conjugated anti-β2m for 1h at 37° C., washed again and detected with TMB solution that is stopped with […]. Absorption was measured at 450 nm. Candidate peptides that show a high exchange yield (preferably higher than 50%, most preferred higher than 75%) are generally preferred for a generation and production of antibodies or fragments thereof, and/or T cell receptors or fragments thereof, as they show sufficient avidity to the MHC molecules and prevent dissociation of the MHC complexes.

HLA-A*24 [2] = biological target: T1, HLA-A*24; assay: UV peptide-exchange ELISA (anti-b2m); yield grade ++++ = >75%
Text: as §1, §2

Binder: IRPDYSFQF (also called IRPDYSFQF) [TRDV3-001]
- peptide exchange yield (HLA-A*24 [1]): 20 to 50%

Binder: IMQGFIRAF (also called IMQGFIRAF) [PAE-002]
- peptide exchange yield (HLA-A*24 [1]): 20 to 50%

Binder: VWSCEGCKAF (also called VWSCEGCKAF) [ESR-001]
- peptide exchange yield (HLA-A*24 [1]): 20 to 50%

Binder: RRYFGEKVAL (also called RRYFGEKVAL) [ANO7-005]
- peptide exchange yield (HLA-A*24 [1]): 20 to 50%

Binder: EYNVFPRTL (also called EYNVFPRTL) [MMP13-004]
- peptide exchange yield (HLA-A*24 [1]): 20 to 50%

Binder: FLPRAYYRW (also called FLPRAYYRW) [ANO7-001]
- peptide exchange yield (HLA-A*24 [1]): 20 to 50%

Binder: RPEKVFVF (also called RPEKVFVF) [COL11A1-005]
- peptide exchange yield (HLA-A*24 [1]): 20 to 50%

Binder: FMVIAGMPLF (also called FMVIAGMPLF) [SLC6A3-001]
- peptide exchange yield (HLA-A*24 [1]): 20 to 50%

Binder: MHRTWRETF (also called MHRTWRETF) [ANO7-004]
- peptide exchange yield (HLA-A*24 [1]): 20 to 50%

Binder: YLKSVQLF (also called YLKSVQLF) [RFX8-001]
- peptide exchange yield (HLA-A*24 [1]): 20 to 50%

Binder: ALFAVCWAPF (also called ALFAVCWAPF) [QRFPR-002]
- peptide exchange yield (HLA-A*24 [1]): 20 to 50%

Binder: IFQHFCEEI (also called IFQHFCEEI) [SMC1B-002]
- peptide exchange yield (HLA-A*24 [1]): 20 to 50%

Binder: MLPQIPFLLL (also called MLPQIPFLLL) [COL10-001]
- peptide exchange yield (HLA-A*24 [1]): 20 to 50%

Binder: DYSKQALSL (also called DYSKQALSL) [LAMC2-018]
- peptide exchange yield (HLA-A*24 [1]): 20 to 50%

Binder: SIYPHGVTF (also called SIYPHGVTF) [F5-007]
- peptide exchange yield (HLA-A*24 [1]): 20 to 50%

Binder: VFQPNPLF (also called VFQPNPLF) [WISP3-002]
- peptide exchange yield (HLA-A*24 [1]): 20 to 50%

Binder: YIANLISCF (also called YIANLISCF) [GLYATL3-001]
- peptide exchange yield (HLA-A*24 [1]): 20 to 50%

Binder: ILQAPLSVF (also called ILQAPLSVF) [FCRL5-005]
- peptide exchange yield (HLA-A*24 [1]): 20 to 50%

Binder: LQPPWTTVF (also called LQPPWTTVF) [FCRL5-006]
- peptide exchange yield (HLA-A*24 [1]): 20 to 50%

Binder: ELMAHPFLL (also called ELMAHPFLL) [CYP4Z-002]
- peptide exchange yield (HLA-A*24 [1]): 20 to 50%

Binder: TYGEEMPEEI (also called TYGEEMPEEI) [DNAH17-004]
- peptide exchange yield (HLA-A*24 [1]): 20 to 50%

Binder: SYFEYRRLL (also called SYFEYRRLL) [LAMC2-019]
- peptide exchange yield (HLA-A*24 [1]): 20 to 50%

Binder: AQGSGTVTF (also called AQGSGTVTF) [FCRL3-004]
- peptide exchange yield (HLA-A*24 [1]): 20 to 50%

Binder: LYMRFVNTHF (also called LYMRFVNTHF) [SPINK2-002]
- peptide exchange yield (HLA-A*24 [1]): 20 to 50%

Binder: VYVRPRVF (also called VYVRPRVF) [HMCN1-013]
- peptide exchange yield (HLA-A*24 [1]): 20 to 50%

Binder: RRVTWNVLF (also called RRVTWNVLF) [BTBD17-003]
- peptide exchange yield (HLA-A*24 [1]): 20 to 50%

Binder: KWFNVRMGFGF (also called KWFNVRMGFGF) [LIN-001]
- peptide exchange yield (HLA-A*24 [1]): 20 to 50%

Binder: SLPGSFIYVF (also called SLPGSFIYVF) [HMCN1-012]
- peptide exchange yield (HLA-A*24 [1]): 20 to 50%

Binder: KYKPVALQCIA (also called KYKPVALQCIA) [HMCN1-009]
- peptide exchange yield (HLA-A*24 [1]): 20 to 50%

Binder: VGRSPVFLF (also called VGRSPVFLF) [COL11A1-006]
- peptide exchange yield (HLA-A*24 [1]): 20 to 50%

Binder: MFQFEHIKW (also called MFQFEHIKW) [FBXW10-001]
- peptide exchange yield (HLA-A*24 [1]): 20 to 50%

Binder: VYDTMIEKFA (also called VYDTMIEKFA) [PTP-044]
- peptide exchange yield (HLA-A*24 [1]): 20 to 50%

Binder: VYPSESTVM (also called VYPSESTVM) [PTP-045]
- peptide exchange yield (HLA-A*24 [1]): 20 to 50%

Binder: RYFDENIQKF (also called RYFDENIQKF) [HEPHL-004]
- peptide exchange yield (HLA-A*24 [2]): > 75%

Binder: SWHKATFLF (also called SWHKATFLF) [COL24-002]
- peptide exchange yield (HLA-A*24 [2]): > 75%

Binder: FYKLIQNGF (also called FYKLIQNGF) [FLT3-010]
- peptide exchange yield (HLA-A*24 [2]): > 75%

Binder: IYYSHENLI (also called IYYSHENLI) [F5-005]
- peptide exchange yield (HLA-A*24 [2]): > 75%

Binder: VFPLVTPLL (also called VFPLVTPLL) [PTP-042]
- peptide exchange yield (HLA-A*24 [2]): > 75%

Binder: RYSPVKDAW (also called RYSPVKDAW) [KLHDC7B-006]
- peptide exchange yield (HLA-A*24 [2]): > 75%

Binder: VYIVPVIVL (also called VYIVPVIVL) [OXTR-002]
- peptide exchange yield (HLA-A*24 [2]): > 75%

Binder: LYIDKGQYL (also called LYIDKGQYL) [HMCN1-011]
- peptide exchange yield (HLA-A*24 [2]): > 75%

Binder: TYINSLAIL (also called TYINSLAIL) [TGM4-003]
- peptide exchange yield (HLA-A*24 [2]): > 75%

Binder: IYKDYYRYNF (also called IYKDYYRYNF) [PLA2G2D-001]
- peptide exchange yield (HLA-A*24 [2]): > 75%

Binder: VYKEDLPQL (also called VYKEDLPQL) [EML-002]
- peptide exchange yield (HLA-A*24 [2]): > 75%

Binder: KWFDSHIPRW (also called KWFDSHIPRW) [ERV-002]
- peptide exchange yield (HLA-A*24 [2]): > 75%

Binder: RYTGQWSEW (also called RYTGQWSEW) [IL9R-001]
- peptide exchange yield (HLA-A*24 [2]): > 75%

Binder: RYLPNPSLNAF (also called RYLPNPSLNAF) [CYP1A1-002]
- peptide exchange yield (HLA-A*24 [2]): > 75%

Binder: RWLDGSPVTL (also called RWLDGSPVTL) [CLEC17-005]
- peptide exchange yield (HLA-A*24 [2]): > 75%

Binder: YFCSTKGQLF (also called YFCSTKGQLF) [FCRL2-004]
- peptide exchange yield (HLA-A*24 [2]): > 75%

Binder: NYVLVPTMF (also called NYVLVPTMF) [CAPN6-003]
- peptide exchange yield (HLA-A*24 [2]): > 75%

Binder: IYIYPFAHW (also called IYIYPFAHW) [NPFFR2-002]
- peptide exchange yield (HLA-A*24 [2]): > 75%

Binder: LYGFFFKI (also called LYGFFFKI) [BTBD16-002]
- peptide exchange yield (HLA-A*24 [2]): > 75%

Binder: TYSKTIALYGF (also called TYSKTIALYGF) [BTBD16-004]
- peptide exchange yield (HLA-A*24 [2]): > 75%

Binder: SYATPVDLW (also called SYATPVDLW) [CDK6-007]
- peptide exchange yield (HLA-A*24 [2]): > 75%

Binder: AYLKLLPMF (also called AYLKLLPMF) [SLC5A4-001]
- peptide exchange yield (HLA-A*24 [2]): > 75%

Binder: SYLENSASW (also called SYLENSASW) [DLX5-003]
- peptide exchange yield (HLA-A*24 [2]): > 75%

Binder: VLQGEFFLF (also called VLQGEFFLF) [KBTBD8-005]
- peptide exchange yield (HLA-A*24 [2]): > 75%

Binder: YTIERYFTL (also called YTIERYFTL) [GABRP-007]
- peptide exchange yield (HLA-A*24 [2]): > 75%

Binder: KYLSIPTVFF (also called KYLSIPTVFF) [UGT1A3-002]
- peptide exchange yield (HLA-A*24 [2]): > 75%

Binder: SYLPTAERL (also called SYLPTAERL) [SYT12-001]
- peptide exchange yield (HLA-A*24 [2]): > 75%

Binder: NYTRLVLQF (also called NYTRLVLQF) [GABRP-004]
- peptide exchange yield (HLA-A*24 [2]): > 75%

Binder: TYVPSTFLV (also called TYVPSTFLV) [GABRP-005]
- peptide exchange yield (HLA-A*24 [2]): > 75%

Binder: TYVPSTFLVVL (also called TYVPSTFLVVL) [GABRP-006]
- peptide exchange yield (HLA-A*24 [2]): > 75%

Binder: IGLSVVHRF (also called IGLSVVHRF) [OR51E2-003]
- peptide exchange yield (HLA-A*24 [2]): > 75%

Binder: VYAVSSDRF (also called VYAVSSDRF) [DCX-001]
- peptide exchange yield (HLA-A*24 [2]): > 75%

Binder: LYAFLGSHF (also called LYAFLGSHF) [KISS1R-003]
- peptide exchange yield (HLA-A*24 [2]): > 75%

Reference: US20190352359A1 (IMMATICS BIOTECHNOLOGIES, published 2019)
